Target: Ecad ectodomain K14E mutant
Assay: single-molecule AFM dynamic force spectroscopy

- koff: 0.78 s⁻¹
Substance: Ecad ectodomain K14E mutant (domain or fragment)

Reference: article PMC9829383
